In one series the target is CarD K90A;MTB RNAP (WT) (Mycobacterium …, UniProt P9WJG3;P9WGZ1;P9WGY9;P9WGY7;P9WGY5 1-162;1-347;1-1178;1-1316;1-110, K90A|). The series is described as follows: competition (fluorescence polarization). To be noted: protein: recombinant;recombinant; tags: ;; copies: 1;2;1;1;1; blunt.
The target of another series is CarD R47E;MTB RNAP (WT) (Mycobacterium …, UniProt P9WJG3;P9WGZ1;P9WGY9;P9WGY7;P9WGY5 1-162;1-347;1-1178;1-1316;1-110, R47E|). The series is described as follows: competition (fluorescence polarization). To be noted: protein: recombinant;recombinant; tags: ;; copies: 1;2;1;1;1; blunt.

B1: rrnAP3 native 61 bp (dsDNA)
DNA 1: GATGACCGAACCTGGTCTTGACTCCATTGCCGGATTTGTATTAGACTGGCAGGGTTGCCCC
DNA 2: GGGGCAACCCTGCCAGTCTAATACAAATCCGGCAATGGAGTCAAGACCAGGTTCGGTCATC
For B1, the figures for the inhibition constant Ki with CarD K90A;MTB RNAP (WT) and with CarD R47E;MTB RNAP (WT) were 85 ± 6 nM and 129 ± 14 nM, respectively.

Broadly, the Ki is the dissociation constant of the complex between target and ligand, obtained from inhibition or displacement.

These data come from PMC7718890.
